Reference: patent US20170028021A1, “COMPOSITIONS AND METHODS FOR TREATING NEURODEGENERATIVE DISEASE” (MYELIN THERAPEUTICS, INC., priority 2015, published 2017)

Tested on: primary mouse OPs
Experiment: Proliferation of oligodendrocyte precursor (OP) cultures, scoring NG2+ and NG2+/BrdU+ cells
Type: cell-based
Conditions: TLQP-21 3 μM, AQEE-30 3 μM, BDNF 50 ng/μl, analyzed 48 hours later, vs DMSO
Procedure: The growth factor VGF was of particular interest because it is reported to be highly expressed in OPs. Furthermore, its upregulation upon exercise activates the anti-depressant response in mammals, and maintains BDNF expression in a VGF-BDNF positive feedback loop. […] VGF is cleaved to produce numerous C-terminal bioactive peptides including TLQP-62, TLQP-21, and AQEE-30, amongst others. As such, oligodendrocyte precursor (OP) cultures were treated with well-characterized peptides that trigger BDNF production TLQP-21 (3 μM), AQEE-30 (3 μM), BDNF (50 ng/μl), or DMSO along with the proliferation marker BrdU and then analyzed 48 hours later by scoring the number of NG2+/BrdU+ cells. In parallel, the total number of NG2+ cells was counted to assess for endogenous proliferation. […] Indeed, VGF protein levels are robust early in the OP differentiation cascade (FIG. 11).
Mouse OPs were isolated from the cortices of PO WT neonates by expansion within mixed glial culture for 8 days, purified, and subsequently differentiated as an OP-enriched culture. At DIV1 post-purification, cells were treated with DMSO, BDNF, VGF AQEE-30 or VGF TLQP-21 at 3 uM and allowed to grow for an additional 48 hrs. […] DAPI stains all nuclei. […] Scale bar, […]. FIG. 10C depicts quantitation of the average dendritic length 48 hrs post-peptide treatment. **P<0.01, n=4 independent coverslips per condition. […]

B1: BDNF: brain-derived neurotrophic factor, comparison treatment in OP cultures (protein, UniProt P23560 19-247, looked up)
Neurotrophic factor BDNF …: APMKEANIRGQGGLAYPGVRTHGTLESVNGPKAGSRGLTSLADTFEHVIEELLDEDQKVRPNEENNKDADLYTSRVMLSSQVPLEPPLLFLLEEYKNYLDAANMSMRVRRHSDPARRGELSVCDSISEWVTAADKKTAVDMSGGTVTVLEKVPVSKGQLKQYFYETKCNPMGYTKEGCRGIDKRHWNSQCRTTQSYVRALTMDSKKRIGWRFIRIDTSCVCTLTIKRGR
For B1, which “total number of NG2+ cells” value is on record?
The value was “no significant differences”.

What about the “total number of proliferating Ng2+/BrdU+ OPs” value (with BrdU) of the same molecule?
The value was “no significant differences”.
